# Assay results: article PMC7108423 (The International Journal of Biochemistry & Cell Biology, 2005)
# Read-outs that look alike come from different tables or passages of the source.
# B1: MCT peptide (residues 197-221 of SARS-CoV M protein) (peptide)
# peptide: RYRIGNYKLNTDHAGSNDNIALLVQ
# B2: His-tagged SARS-CoV ME (endodomain of M protein, aa102-221) (domain or fragment)
# chain: FARTRSMWSFNPETNILLNVPLRGTIVTRPLMESELVIGAVIIRGHLRMAGHSLGRCDIKDLPKEITVATSRTLSYYKLGASQRVGTDSGFAAYNRYRIGNYKLNTDHAGSNDNIALLVQ
# How the values were obtained:
# Test in all cases: SPR
# [1] = biological target: T1, recombinant SARS-CoV N protein (SARS coronavirus (SARS-CoV), UniProt P59595 1-422)
# [2] = biological target: T1, recombinant SARS-CoV N protein; remark: listed apart in the source
# [3] = biological target: T1, recombinant SARS-CoV N protein; remark: listed apart in the source
# [4] = biological target: His-tagged N11 (aa283-422 of SARS-CoV N protein) (SARS coronavirus (SARS-CoV), UniProt P59595 283-422)
# Chain of His-tagged N11 (aa283-422 of SARS-CoV N protein) (P59595 283-422): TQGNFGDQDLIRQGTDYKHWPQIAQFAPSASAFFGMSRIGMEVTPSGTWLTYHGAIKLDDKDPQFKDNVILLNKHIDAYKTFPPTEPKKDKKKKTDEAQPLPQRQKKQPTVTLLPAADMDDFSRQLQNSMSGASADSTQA
# T1 sequence (P59595 whole entry): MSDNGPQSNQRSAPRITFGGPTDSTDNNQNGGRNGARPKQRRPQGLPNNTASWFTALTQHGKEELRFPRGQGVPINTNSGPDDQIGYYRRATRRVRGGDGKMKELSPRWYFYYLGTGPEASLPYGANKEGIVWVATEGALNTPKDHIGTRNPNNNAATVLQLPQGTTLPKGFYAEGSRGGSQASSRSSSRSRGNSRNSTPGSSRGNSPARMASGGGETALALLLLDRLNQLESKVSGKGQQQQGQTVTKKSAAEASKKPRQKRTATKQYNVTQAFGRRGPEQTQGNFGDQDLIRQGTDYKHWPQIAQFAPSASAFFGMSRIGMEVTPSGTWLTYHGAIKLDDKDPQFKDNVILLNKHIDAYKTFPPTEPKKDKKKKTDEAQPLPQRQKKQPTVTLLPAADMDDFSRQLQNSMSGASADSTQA
Binder,Kd [1] [µM],koff [1] [s⁻¹],kon [1] [M⁻¹ s⁻¹],Kd [2] [µM],Kd [3] [µM],Kd [4] [nM]
B1,75 ± 5,0.0394 ± 0.002,509 ± 42,–,–,–
B2,0.55 ± 0.04,0.00223,4180,49.2,21.2,610 ± 60
